In PMC9916421:

Target: DrMoaE (MoaE of Deinococcus radiodurans, large subunit of MPT synthase) (Deinococcus radiodurans)
Assay: SEC; gel filtration profiles of DrMoaE and DrMoaER110A; standard curve from aprotinin, RNaseA, chymotrypsinogen A, ovalbumin and BSA

DrMoaE (MoaE of Deinococcus radiodurans, large subunit of MPT synthase) (natural protein)
stoichiometry N: 2
